Data reported in patent US20210032299A1 (Eli Lilly, published 2021).
Starred links: 1 amine or outer side, 2 acyl side, 3 side chain; linkers in the order of their positions; H or OH if unused. Non-standard residues stand in square brackets, D forms with d. Groups on a side chain read outwards from the residue. No end group written: not given here. *: point of attachment. C20 diacid = O=C(O)CCCCCCCCCCCCCCCCCCC(=O)*; C18 diacid = O=C(O)CCCCCCCCCCCCCCCCC(=O)*; αMePhe(2-F) = C[C@](N)(Cc1ccccc1F)C(=O)O; γGlu = O=C(O)[C@H](CCC(=O)[*:2])N[*:1]; αMeF = C[C@](N)(Cc1ccccc1)C(=O)O; 4Pal = N[C@@H](Cc1ccncc1)C(=O)O; αMeL = CC(C)C[C@](C)(N)C(=O)O; AEEA = NCCOCCOCC(=O)O; Aib = CC(C)(N)C(=O)O

T1: human glucose-dependent insulinotropic peptide receptor (human, UniProt P48546 22-466)
T1 sequence (looked up): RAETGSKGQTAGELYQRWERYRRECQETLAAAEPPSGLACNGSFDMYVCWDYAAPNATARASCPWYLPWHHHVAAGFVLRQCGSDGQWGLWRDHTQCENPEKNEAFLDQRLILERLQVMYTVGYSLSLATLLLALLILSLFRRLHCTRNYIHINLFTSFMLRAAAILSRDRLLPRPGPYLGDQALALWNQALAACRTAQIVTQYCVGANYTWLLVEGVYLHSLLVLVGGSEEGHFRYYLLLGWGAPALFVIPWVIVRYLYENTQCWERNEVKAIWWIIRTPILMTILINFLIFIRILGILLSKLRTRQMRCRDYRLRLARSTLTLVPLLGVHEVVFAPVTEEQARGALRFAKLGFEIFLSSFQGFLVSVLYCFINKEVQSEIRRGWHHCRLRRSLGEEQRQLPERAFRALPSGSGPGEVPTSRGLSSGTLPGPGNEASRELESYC

B1: Example 49 (peptide)
peptide: Y[Aib]EGTFISDYSI[αMeL]LDKK([AEEA-AEEA-γGlu-C18 diacid])HQ[Aib]DFVE[4Pal]LLAGGPSSGAPPPS-NH2
modifications: N-terminus assumed
SMILES: CC[C@H](C)[C@H](NC(=O)[C@H](Cc1ccccc1)NC(=O)[C@@H](NC(=O)CNC(=O)[C@H](CCC(=O)O)NC(=O)C(C)(C)NC(=O)[C@@H](N)Cc1ccc(O)cc1)[C@@H](C)O)C(=O)N[C@@H](CO)C(=O)N[C@@H](CC(=O)O)C(=O)N[C@@H](Cc1ccc(O)cc1)C(=O)N[C@@H](CO)C(=O)N[C@H](C(=O)N[C@@](C)(CC(C)C)C(=O)N[C@@H](CC(C)C)C(=O)N[C@@H](CC(=O)O)C(=O)N[C@@H](CCCCN)C(=O)N[C@@H](CCCCNC(=O)COCCOCCNC(=O)COCCOCCNC(=O)CC[C@H](NC(=O)CCCCCCCCCCCCCCCCC(=O)O)C(=O)O)C(=O)N[C@@H](Cc1c[nH]cn1)C(=O)N[C@@H](CCC(N)=O)C(=O)NC(C)(C)C(=O)N[C@@H](CC(=O)O)C(=O)N[C@@H](Cc1ccccc1)C(=O)N[C@H](C(=O)N[C@@H](CCC(=O)O)C(=O)N[C@@H](Cc1ccncc1)C(=O)N[C@@H](CC(C)C)C(=O)N[C@@H](CC(C)C)C(=O)N[C@@H](C)C(=O)NCC(=O)NCC(=O)N1CCC[C@H]1C(=O)N[C@@H](CO)C(=O)N[C@@H](CO)C(=O)NCC(=O)N[C@@H](C)C(=O)N1CCC[C@H]1C(=O)N1CCC[C@H]1C(=O)N1CCC[C@H]1C(=O)N[C@@H](CO)C(N)=O)C(C)C)[C@@H](C)CC
B2: Example 51 (peptide)
peptide: Y[Aib]EGT[αMePhe(2-F)]ISDYSI[αMeL]LDKK([AEEA-AEEA-γGlu-C20 diacid])HQ[Aib]DFVE[4Pal]LLAGGPSSGAPPPS-NH2
modifications: N-terminus assumed
SMILES: CC[C@H](C)[C@H](NC(=O)[C@H](CO)NC(=O)[C@H](Cc1ccc(O)cc1)NC(=O)[C@H](CC(=O)O)NC(=O)[C@H](CO)NC(=O)[C@@H](NC(=O)[C@](C)(Cc1ccccc1F)NC(=O)[C@@H](NC(=O)CNC(=O)[C@H](CCC(=O)O)NC(=O)C(C)(C)NC(=O)[C@@H](N)Cc1ccc(O)cc1)[C@@H](C)O)[C@@H](C)CC)C(=O)N[C@@](C)(CC(C)C)C(=O)N[C@@H](CC(C)C)C(=O)N[C@@H](CC(=O)O)C(=O)N[C@@H](CCCCN)C(=O)N[C@@H](CCCCNC(=O)COCCOCCNC(=O)COCCOCCNC(=O)CC[C@H](NC(=O)CCCCCCCCCCCCCCCCCCC(=O)O)C(=O)O)C(=O)N[C@@H](Cc1c[nH]cn1)C(=O)N[C@@H](CCC(N)=O)C(=O)NC(C)(C)C(=O)N[C@@H](CC(=O)O)C(=O)N[C@@H](Cc1ccccc1)C(=O)N[C@H](C(=O)N[C@@H](CCC(=O)O)C(=O)N[C@@H](Cc1ccncc1)C(=O)N[C@@H](CC(C)C)C(=O)N[C@@H](CC(C)C)C(=O)N[C@@H](C)C(=O)NCC(=O)NCC(=O)N1CCC[C@H]1C(=O)N[C@@H](CO)C(=O)N[C@@H](CO)C(=O)NCC(=O)N[C@@H](C)C(=O)N1CCC[C@H]1C(=O)N1CCC[C@H]1C(=O)N1CCC[C@H]1C(=O)N[C@@H](CO)C(N)=O)C(C)C
B3: Example 52 (peptide)
peptide: Y[Aib]EGTFISDYSI[αMeL]LDKK([AEEA-AEEA-γGlu-C20 diacid])HQ[Aib]EFVE[4Pal]LLAGGPSSGAPPPS-NH2
modifications: N-terminus assumed
SMILES: CC[C@H](C)[C@H](NC(=O)[C@H](Cc1ccccc1)NC(=O)[C@@H](NC(=O)CNC(=O)[C@H](CCC(=O)O)NC(=O)C(C)(C)NC(=O)[C@@H](N)Cc1ccc(O)cc1)[C@@H](C)O)C(=O)N[C@@H](CO)C(=O)N[C@@H](CC(=O)O)C(=O)N[C@@H](Cc1ccc(O)cc1)C(=O)N[C@@H](CO)C(=O)N[C@H](C(=O)N[C@@](C)(CC(C)C)C(=O)N[C@@H](CC(C)C)C(=O)N[C@@H](CC(=O)O)C(=O)N[C@@H](CCCCN)C(=O)N[C@@H](CCCCNC(=O)COCCOCCNC(=O)COCCOCCNC(=O)CC[C@H](NC(=O)CCCCCCCCCCCCCCCCCCC(=O)O)C(=O)O)C(=O)N[C@@H](Cc1c[nH]cn1)C(=O)N[C@@H](CCC(N)=O)C(=O)NC(C)(C)C(=O)N[C@@H](CCC(=O)O)C(=O)N[C@@H](Cc1ccccc1)C(=O)N[C@H](C(=O)N[C@@H](CCC(=O)O)C(=O)N[C@@H](Cc1ccncc1)C(=O)N[C@@H](CC(C)C)C(=O)N[C@@H](CC(C)C)C(=O)N[C@@H](C)C(=O)NCC(=O)NCC(=O)N1CCC[C@H]1C(=O)N[C@@H](CO)C(=O)N[C@@H](CO)C(=O)NCC(=O)N[C@@H](C)C(=O)N1CCC[C@H]1C(=O)N1CCC[C@H]1C(=O)N1CCC[C@H]1C(=O)N[C@@H](CO)C(N)=O)C(C)C)[C@@H](C)CC
B4: Example 53 (peptide)
peptide: Y[Aib]EGTFISDYSI[αMeL]LDKK([AEEA-AEEA-γGlu-C20 diacid])HQ[Aib]DFVEYLLAGGPSSGAPPPS-NH2
modifications: N-terminus assumed
SMILES: CC[C@H](C)[C@H](NC(=O)[C@H](Cc1ccccc1)NC(=O)[C@@H](NC(=O)CNC(=O)[C@H](CCC(=O)O)NC(=O)C(C)(C)NC(=O)[C@@H](N)Cc1ccc(O)cc1)[C@@H](C)O)C(=O)N[C@@H](CO)C(=O)N[C@@H](CC(=O)O)C(=O)N[C@@H](Cc1ccc(O)cc1)C(=O)N[C@@H](CO)C(=O)N[C@H](C(=O)N[C@@](C)(CC(C)C)C(=O)N[C@@H](CC(C)C)C(=O)N[C@@H](CC(=O)O)C(=O)N[C@@H](CCCCN)C(=O)N[C@@H](CCCCNC(=O)COCCOCCNC(=O)COCCOCCNC(=O)CC[C@H](NC(=O)CCCCCCCCCCCCCCCCCCC(=O)O)C(=O)O)C(=O)N[C@@H](Cc1c[nH]cn1)C(=O)N[C@@H](CCC(N)=O)C(=O)NC(C)(C)C(=O)N[C@@H](CC(=O)O)C(=O)N[C@@H](Cc1ccccc1)C(=O)N[C@H](C(=O)N[C@@H](CCC(=O)O)C(=O)N[C@@H](Cc1ccc(O)cc1)C(=O)N[C@@H](CC(C)C)C(=O)N[C@@H](CC(C)C)C(=O)N[C@@H](C)C(=O)NCC(=O)NCC(=O)N1CCC[C@H]1C(=O)N[C@@H](CO)C(=O)N[C@@H](CO)C(=O)NCC(=O)N[C@@H](C)C(=O)N1CCC[C@H]1C(=O)N1CCC[C@H]1C(=O)N1CCC[C@H]1C(=O)N[C@@H](CO)C(N)=O)C(C)C)[C@@H](C)CC
B5: Example 50 (peptide)
peptide: Y[Aib]EGT[αMeF]ISDYSI[αMeL]LDKK([AEEA-AEEA-γGlu-C20 diacid])HQ[Aib]DFVE[4Pal]LLAGGPSSGAPPPS-NH2
modifications: N-terminus assumed
SMILES: CC[C@H](C)[C@H](NC(=O)[C@H](CO)NC(=O)[C@H](Cc1ccc(O)cc1)NC(=O)[C@H](CC(=O)O)NC(=O)[C@H](CO)NC(=O)[C@@H](NC(=O)[C@](C)(Cc1ccccc1)NC(=O)[C@@H](NC(=O)CNC(=O)[C@H](CCC(=O)O)NC(=O)C(C)(C)NC(=O)[C@@H](N)Cc1ccc(O)cc1)[C@@H](C)O)[C@@H](C)CC)C(=O)N[C@@](C)(CC(C)C)C(=O)N[C@@H](CC(C)C)C(=O)N[C@@H](CC(=O)O)C(=O)N[C@@H](CCCCN)C(=O)N[C@@H](CCCCNC(=O)COCCOCCNC(=O)COCCOCCNC(=O)CC[C@H](NC(=O)CCCCCCCCCCCCCCCCCCC(=O)O)C(=O)O)C(=O)N[C@@H](Cc1c[nH]cn1)C(=O)N[C@@H](CCC(N)=O)C(=O)NC(C)(C)C(=O)N[C@@H](CC(=O)O)C(=O)N[C@@H](Cc1ccccc1)C(=O)N[C@H](C(=O)N[C@@H](CCC(=O)O)C(=O)N[C@@H](Cc1ccncc1)C(=O)N[C@@H](CC(C)C)C(=O)N[C@@H](CC(C)C)C(=O)N[C@@H](C)C(=O)NCC(=O)NCC(=O)N1CCC[C@H]1C(=O)N[C@@H](CO)C(=O)N[C@@H](CO)C(=O)NCC(=O)N[C@@H](C)C(=O)N1CCC[C@H]1C(=O)N1CCC[C@H]1C(=O)N1CCC[C@H]1C(=O)N[C@@H](CO)C(N)=O)C(C)C
B6: Example 54 (peptide)
peptide: Y[Aib]EGTFISDYSI[αMeL]LDKK([AEEA-AEEA-γGlu-C20 diacid])HQ[Aib]DFVEWLLAGGPSSGAPPPS-NH2
modifications: N-terminus assumed
SMILES: CC[C@H](C)[C@H](NC(=O)[C@H](Cc1ccccc1)NC(=O)[C@@H](NC(=O)CNC(=O)[C@H](CCC(=O)O)NC(=O)C(C)(C)NC(=O)[C@@H](N)Cc1ccc(O)cc1)[C@@H](C)O)C(=O)N[C@@H](CO)C(=O)N[C@@H](CC(=O)O)C(=O)N[C@@H](Cc1ccc(O)cc1)C(=O)N[C@@H](CO)C(=O)N[C@H](C(=O)N[C@@](C)(CC(C)C)C(=O)N[C@@H](CC(C)C)C(=O)N[C@@H](CC(=O)O)C(=O)N[C@@H](CCCCN)C(=O)N[C@@H](CCCCNC(=O)COCCOCCNC(=O)COCCOCCNC(=O)CC[C@H](NC(=O)CCCCCCCCCCCCCCCCCCC(=O)O)C(=O)O)C(=O)N[C@@H](Cc1c[nH]cn1)C(=O)N[C@@H](CCC(N)=O)C(=O)NC(C)(C)C(=O)N[C@@H](CC(=O)O)C(=O)N[C@@H](Cc1ccccc1)C(=O)N[C@H](C(=O)N[C@@H](CCC(=O)O)C(=O)N[C@@H](Cc1c[nH]c2ccccc12)C(=O)N[C@@H](CC(C)C)C(=O)N[C@@H](CC(C)C)C(=O)N[C@@H](C)C(=O)NCC(=O)NCC(=O)N1CCC[C@H]1C(=O)N[C@@H](CO)C(=O)N[C@@H](CO)C(=O)NCC(=O)N[C@@H](C)C(=O)N1CCC[C@H]1C(=O)N1CCC[C@H]1C(=O)N1CCC[C@H]1C(=O)N[C@@H](CO)C(N)=O)C(C)C)[C@@H](C)CC

The binders below were run against T1, human glucose-dependent insulinotropic … (assay: cell-based or functional assay).

In order of falling “hGIPR cAMP Rel EC50” value:
1. B6  0.054 nM
2. B5  0.0212 nM
3. B3  0.0194 nM
4. B4  0.0194 nM
5. B2  0.0166 nM
6. B1  0.0156 nM

These binders were tested against human glucagon receptor (human, UniProt P47871 26-477) (assay: cell-based or functional assay).
Sequence of human glucagon receptor (P47871 26-477): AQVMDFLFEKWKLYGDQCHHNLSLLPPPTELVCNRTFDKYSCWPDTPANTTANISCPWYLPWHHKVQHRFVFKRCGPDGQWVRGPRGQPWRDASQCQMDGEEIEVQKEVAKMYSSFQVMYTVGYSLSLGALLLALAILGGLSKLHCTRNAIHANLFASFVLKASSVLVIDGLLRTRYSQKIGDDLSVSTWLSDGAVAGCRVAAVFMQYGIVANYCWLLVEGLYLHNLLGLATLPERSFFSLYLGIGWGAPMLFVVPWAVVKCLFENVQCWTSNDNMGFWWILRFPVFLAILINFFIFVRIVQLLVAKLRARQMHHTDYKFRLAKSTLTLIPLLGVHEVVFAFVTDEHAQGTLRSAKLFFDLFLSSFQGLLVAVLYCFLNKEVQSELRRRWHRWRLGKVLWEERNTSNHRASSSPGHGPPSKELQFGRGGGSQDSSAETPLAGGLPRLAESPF

Going from B1 to B2, the “hGcgR cAMP Rel EC50” value falls from 2860 nM to 308 nM (9.3-fold).

B3 and B4 are within 1.5-fold of each other in “hGcgR cAMP Rel EC50” value: 337 nM for the first, 344 nM for the second.

First: B5
Second: B6
The “hGcgR cAMP Rel EC50” value of the first is lower: 371 nM for the first, over 5000 nM for the second.

What follows are binders tested against human GLP-1 receptor (human, UniProt P43220 24-463) (assay: cell-based or functional assay).

First: B1
Second: B2
The “hGLP1R cAMP Rel EC50” value of the first is higher: over 5000 nM for the first, 24.7 nM for the second.

B3 and B4 cannot be ordered by “hGLP1R cAMP Rel EC50” value: over 5000 nM for the first, over 5000 nM for the second.

Compared with B5, B6 is higher in “hGLP1R cAMP Rel EC50” value: 41 nM for the first, over 5000 nM for the second.
